This test concerns the target PltB pentamer (B subunit of typhoid toxin, as in the crystal structure) (Salmonella enterica serovar Typhi). Put plainly: interface analysis of the crystal structure (computed).

“PltA (subunit of typhoid toxin, as in the crystal structure) (enzyme)” came in with a buried surface of 1660 Å^2 and a ΔiG (printed "ÅiG") of -17.7 kcal/mol.

The record behind these values is patent US20170021005A1.
